Test results published in patent publication US20220403031A1.

Assays:
[1] = target: cynomolgus monkey PD-L1 on 293F cells (W315-293F.cynoPro1.2A2) (cynomolgus monkey) (UniProt G7PSE7); assay: FACS on cynomolgus PD-L1 293F cells
[2] = target: cynomolgus monkey PD-L1 on 293F cells (W315-293F.cynoPro1.2A2) (cynomolgus monkey) (UniProt G7PSE7); assay: FACS affinity on cynomolgus PD-L1 cells, quantitative beads; set-up: Bmax: unit not given here
[3] = target: mouse PD-L1 on 293F cells (W315-293F.mPro1.C1) (mouse) (UniProt Q9EP73); assay: FACS on mouse PD-L1 293F cells
Sequence of mouse PD-L1 on 293F cells (W315-293F.mPro1.C1) (mouse) (Q9EP73 19-290): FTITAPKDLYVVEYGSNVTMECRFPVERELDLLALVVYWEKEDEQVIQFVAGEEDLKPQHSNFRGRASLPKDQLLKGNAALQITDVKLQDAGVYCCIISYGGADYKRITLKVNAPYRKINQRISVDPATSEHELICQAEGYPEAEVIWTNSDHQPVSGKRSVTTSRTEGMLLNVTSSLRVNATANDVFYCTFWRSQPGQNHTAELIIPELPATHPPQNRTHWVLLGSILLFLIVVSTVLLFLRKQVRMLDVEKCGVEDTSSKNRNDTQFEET

[4] = target: human PD-L1 on CHO-K1 cells (W315-CHO-K1.hPro1.C11) (human) (UniProt Q9NZQ7); assay: FACS affinity on human PD-L1 cells, quantitative beads
Sequence of human PD-L1 on CHO-K1 cells (W315-CHO-K1.hPro1.C11) (human) (Q9NZQ7 19-290): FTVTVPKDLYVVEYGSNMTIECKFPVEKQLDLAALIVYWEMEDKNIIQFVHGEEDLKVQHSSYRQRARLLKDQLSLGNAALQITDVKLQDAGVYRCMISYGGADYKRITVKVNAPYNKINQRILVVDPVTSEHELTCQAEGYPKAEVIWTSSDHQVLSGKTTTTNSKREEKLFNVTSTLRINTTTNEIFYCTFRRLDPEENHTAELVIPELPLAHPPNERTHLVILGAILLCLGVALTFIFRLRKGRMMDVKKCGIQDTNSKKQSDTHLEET

[5] = target: mouse PD-L1 on 293F cells (W315-293F.mPro1.C1) (mouse) (UniProt Q9EP73); assay: FACS affinity on mouse PD-L1 cells, quantitative beads
[6] = target: mouse PD-L1 on 293F cells (W315-293F.mPro1.C1) (mouse) (UniProt Q9EP73); assay: FACS competition: antibody titrated against 5 ug/mL mouse PD-1 ECD mFc on mouse PD-L1 293F cells
[7] = target: human PD-L1 on CHO-K1 cells (W315-CHO-K1.hPro1.C11) (human) (UniProt Q9NZQ7); assay: FACS competition: antibody titrated against 5 ug/mL human PD-1 ECD mFc on human PD-L1 CHO-K1 cells
[8] = target: human PD-L1 on CHO-K1 cells (W315-CHO-K1.hPro1.C11) (human) (UniProt Q9NZQ7); assay: FACS on human PD-L1 CHO-K1 cells
[9] = target: HER3.his (Homo sapiens (Human)) (UniProt P21860); assay: non-specific binding ELISA; secondary antibody alone on coated antigen
[10] = target: 4-1BB.his (Homo sapiens (Human)) (UniProt Q07011); assay: as above
Sequence of 4-1BB.his (Homo sapiens (Human)) (Q07011 24-186 limits assumed): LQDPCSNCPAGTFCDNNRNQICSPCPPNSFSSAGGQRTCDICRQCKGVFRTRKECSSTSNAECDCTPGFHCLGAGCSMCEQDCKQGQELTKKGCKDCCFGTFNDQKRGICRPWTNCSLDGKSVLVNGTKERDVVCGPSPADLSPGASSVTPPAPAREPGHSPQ

[11] = target: CD22.his; assay: as above
[12] = target: PD-1.his (Homo sapiens (Human)) (UniProt Q15116); assay: as above
Sequence of PD-1.his (Homo sapiens (Human)) (Q15116 25-170 limits assumed): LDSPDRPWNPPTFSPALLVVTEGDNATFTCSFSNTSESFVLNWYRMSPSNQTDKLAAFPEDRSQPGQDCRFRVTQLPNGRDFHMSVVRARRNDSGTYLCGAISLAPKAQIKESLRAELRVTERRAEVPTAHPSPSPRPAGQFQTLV

[13] = target: VEGF.his; assay: as above
[14] = target: FGFR.his; assay: as above
[15] = target: OX40.his; assay: as above
Sequence of OX40.his (P43489 29-214): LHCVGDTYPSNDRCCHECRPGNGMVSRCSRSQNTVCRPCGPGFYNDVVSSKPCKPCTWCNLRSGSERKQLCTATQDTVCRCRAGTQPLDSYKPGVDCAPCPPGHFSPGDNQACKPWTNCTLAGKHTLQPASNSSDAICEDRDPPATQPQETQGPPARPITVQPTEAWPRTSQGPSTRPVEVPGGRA

[16] = target: Factor VIII; assay: as above
[17] = target: CD40; assay: as above
Sequence of CD40 (P25942 21-193): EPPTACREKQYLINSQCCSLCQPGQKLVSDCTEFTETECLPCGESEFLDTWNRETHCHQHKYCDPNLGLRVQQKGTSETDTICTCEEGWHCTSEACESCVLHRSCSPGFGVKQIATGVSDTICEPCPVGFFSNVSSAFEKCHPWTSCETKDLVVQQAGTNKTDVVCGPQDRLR

[18] = target: CD147.his; assay: as above
[19] = target: human serum Albumin (human) (UniProt P02768); assay: as above
[20] = target: CTLA4.his; assay: as above
Sequence of CTLA4.his (P16410 36-161): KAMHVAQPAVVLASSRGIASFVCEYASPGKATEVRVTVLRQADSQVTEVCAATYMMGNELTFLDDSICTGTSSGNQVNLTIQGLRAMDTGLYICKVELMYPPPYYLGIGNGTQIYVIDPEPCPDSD

[21] = target: CD3.his; assay: as above
[22] = target: HER3.his (Homo sapiens (Human)) (UniProt P21860); assay: non-specific binding ELISA; antigen coated at 2 ug/mL, antibody at 10 ug/ml
[23] = target: 4-1BB.his (Homo sapiens (Human)) (UniProt Q07011); assay: as above
[24] = target: CD22.his; assay: as above
[25] = target: PD-1.his (Homo sapiens (Human)) (UniProt Q15116); assay: as above
[26] = target: VEGF.his; assay: as above
[27] = target: FGFR.his; assay: as above
[28] = target: OX40.his; assay: as above
[29] = target: Factor VIII; assay: as above
[30] = target: CD40; assay: as above
[31] = target: CD147.his; assay: as above
[32] = target: human serum Albumin (human) (UniProt P02768); assay: as above
[33] = target: CTLA4.his; assay: as above
[34] = target: CD3.his; assay: as above

Sequence of cynomolgus monkey PD-L1 on 293F cells (W315-293F.cynoPro1.2A2) (cynomolgus monkey) (G7PSE7 entry or part of it): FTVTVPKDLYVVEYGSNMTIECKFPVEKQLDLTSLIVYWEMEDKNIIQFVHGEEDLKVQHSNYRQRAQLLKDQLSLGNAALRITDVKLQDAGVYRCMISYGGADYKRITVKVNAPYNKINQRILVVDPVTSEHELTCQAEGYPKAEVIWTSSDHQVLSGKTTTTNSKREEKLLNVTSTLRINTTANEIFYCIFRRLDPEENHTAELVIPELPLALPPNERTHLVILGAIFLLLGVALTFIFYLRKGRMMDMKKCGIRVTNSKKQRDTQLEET

Substance	EC50 [1]	Bmax [2]	Kd [2]	Absorbance at 450 nm [22]	Absorbance at 450 nm [23]	Absorbance at 450 nm [24]	Absorbance at 450 nm [25]	Absorbance at 450 nm [26]	Absorbance at 450 nm [27]	Absorbance at 450 nm [28]	Absorbance at 450 nm [29]	Absorbance at 450 nm [30]	Absorbance at 450 nm [31]	Absorbance at 450 nm [32]	Absorbance at 450 nm [33]	Absorbance at 450 nm [34]	other results
BMK8.hIgG4 (Benchmark antibody 8, variable region of Tecentriq conjugated with human IgG4 constant region)	2.19 nM	8.8e-09	16 nM	–	–	–	–	–	–	–	–	–	–	–	–	–	EC50 [3]: 1.48 nM; Bmax [4]: 3.3e-10; Kd [4]: 0.53 nM; Bmax [5]: 8.3e-10; Kd [5]: 1.7 nM; IC50 [6]: 1.45 nM
BMK9.Fc(IgG1) (Benchmark antibody 9, same sequence with KN035) (Fc fusion)	2.33 nM	–	–	–	–	–	–	–	–	–	–	–	–	–	–	–	IC50 [7]: 0.798 nM; EC50 [8]: 0.456 nM
Goat anti-human IgG Fc-HRP (Bethyl, A80-304P) (antibody)	–	–	–	–	–	–	–	–	–	–	–	–	–	–	–	–	Absorbance at 450 nm [9]: 0.05; Absorbance at 450 nm [10]: 0.05; Absorbance at 450 nm [11]: 0.05; Absorbance at 450 nm [12]: 0.05; Absorbance at 450 nm [13]: 0.06; Absorbance at 450 nm [14]: 0.13; Absorbance at 450 nm [15]: 0.05; Absorbance at 450 nm [16]: 0.06; Absorbance at 450 nm [17]: 0.24; Absorbance at 450 nm [18]: 0.05; Absorbance at 450 nm [19]: 0.37; Absorbance at 450 nm [20]: 0.05; Absorbance at 450 nm [21]: 0.05

Second part, led by results:

EC50 [1]	Bmax [2]	Kd [2]	Absorbance at 450 nm [22]	Absorbance at 450 nm [23]	Absorbance at 450 nm [24]	Absorbance at 450 nm [25]	Absorbance at 450 nm [26]	Absorbance at 450 nm [27]	Absorbance at 450 nm [28]	Absorbance at 450 nm [29]	Absorbance at 450 nm [30]	Absorbance at 450 nm [31]	Absorbance at 450 nm [32]	Absorbance at 450 nm [33]	Absorbance at 450 nm [34]	Substance	other results
2.65 nM	1.6e-08	21 nM	–	–	–	–	–	–	–	–	–	–	–	–	–	BMK6.hIgG4 (Benchmark antibody 6, variable region of Imfinzi conjugated with human IgG4 constant region)	–
–	–	–	0.07	0.07	0.06	3.29	0.11	0.13	0.06	0.15	0.25	0.06	0.41	0.09	0.07	hIgG4K Isotype control (antibody)	–
–	–	–	0.06	0.06	0.06	0.05	0.08	0.13	0.06	0.07	0.24	0.06	0.41	0.06	0.07	hIgG4L Isotype control (antibody)	–
